# Results reported in publication PMC3864932, “Identification of Crucial Amino Acids in Mouse Aldehyde Oxidase 3 That Determine Substrate Specificity” (PLoS ONE, 2013).
# Tests used:
# Assay in all cases: purified protein
# Type in all cases: biochemical, Mus musculus
# Details in all cases: 100 µM DCPIP as electron acceptor, 50 mM Tris-HCl pH 8.0, 1 mM EDTA, 37 °C, kcat corrected for Mo content
# [1] = substrate: O=Cc1ccccc1
# [2] = substrate: Oc1ncnc2[nH]ncc12
# [3] = substrate: O=c1[nH]cnc2nc[nH]c12
Protein,Km [1] [µM],kcat [1] [s⁻¹],kcat/Km [1] [M⁻¹ s⁻¹],Km [2] [µM],kcat [2] [s⁻¹],kcat/Km [2] [M⁻¹ s⁻¹],Km [3] [µM],kcat [3] [s⁻¹],kcat/Km [3] [M⁻¹ s⁻¹]
"mAOX3 (mouse aldehyde oxidase 3) (Mus musculus; F1014I) (protein, N-terminal His6-tag, full length, plasmid pMMA1, expressed in E. coli; homodimer with Moco, two [2Fe-2S], FAD) MSPSKESDELIFFVNGKKVTERNADPEVNLLFYLRKVIRLTGTKYGCGGGDCGACTVMISRYDPISKRISHFSATACLVPICSLHGAAVTTVEGIGSTKTRIHPVQERIAKGHGTQCGFCTPGMVMSIYTLLRNHPEPSTEQIMETLGGNLCRCTGYRPIVESAKSFCPSSTCCQMNGEGKCCLDEEKNEPERKNSVCTKLYEKKEFQPLDPTQELIFPPELMRMAEESQNTVLTFRGERTTWIAPGTLNDLLELKMKHPSAPLVIGNTYLGLHMKFTDVSYPIIISPARILELFVVTNTKQGLTLGAGLSLTQVKNVLSDVVSRLPKEKTQIYCALLKQLKTLAGQQIRNVASLGGHIISRLPTSDLNPILGIGNCILNVASTEGIQQIPLNDHFLAGVPDAILKPEQVLISVFVPRSSKWEFVSAFRQAPRQQNAFATVNAGMKVVFKEDTNTITDLGILYGGIGATVISADKSCRQLIGRCWDEEMLDDAGKMICEEVSLLMAAPGGMEEYRKTLAISFLFMFYLDVLKQLKTRDPHKYPDISQKLLHILEDFPLTMPYGMQSFQDVDFQQPLQDPIGRPIMHQSGIKHATGEAVFCDDMSVLPGELFLAVVTSSKSHAKIISLDASEALASLGVVDVVTARDVPGDNGREEESLYAQDEVICVGQIVCAVAADSYAHAQQAAKKVKIVYQDIEPMIVTVQDALQYESFIGPERKLEQGNVEEAFQCADQILEGEVHLGGQEHFYMETQSVRVVPKGEDKEMDIYVSSQDAAFTQEMVARTLGIPKNRINCHVKRVGGAFGGKASKPGLLASVAAVAAQKTGRPIRFILERRDDMLITGGRHPLLGKYKIGFMNNGKIKAADIQLYINGGCTPDDSELVIEYALLKLENAYKIPNLRVRGRVCKTNLPSNTAFRGFGFPQGAFVTETCMSAVAAKCRLPPEKVRELNMYRTIDRTIHNQEFDPTNLLQCWEACVENSSYYNRKKAVDEFNQQRFWKKRGIAIIPMKFSVGIPKTFYYQAAALVQIYTDGSVLVAHGGVELGQGINTKMIQVASRELKIPMSYIHLDEMSTVTVPNTVTTGASTGADVNGRAVQNACQILMKRLEPIIKQNPSGTWEEWVKEAFVQSISLSATGYFRGYQADMDWEKGEGDIFPYFVFGAACSEVEIDCLTGAHKNIRTDIVMDGSFSINPAVDIGQIEGAFVQGLGLYTLEELKYSPEGVLYTRGPHQYKIASVTDIPEEFHVSLLTPTPNPKAIYSSKGLGEAGTFLGCSVFFAIAAAVAAAREERGLSPIWAINSPATAEVIRMACEDQFTNLVPQTDSKCCKPWSIPVA",22.7 ± 2.7,0.317 ± 0.05,13300 ± 3330,–,–,–,–,–,–
"mAOX3 (mouse aldehyde oxidase 3) (Mus musculus; A807E/D878L/F776K/L881S/P1015T/Y1019L/Y885R) (protein, N-terminal His6-tag, full length, plasmid pMMA1, expressed in E. coli; homodimer with Moco, two [2Fe-2S], FAD) MSPSKESDELIFFVNGKKVTERNADPEVNLLFYLRKVIRLTGTKYGCGGGDCGACTVMISRYDPISKRISHFSATACLVPICSLHGAAVTTVEGIGSTKTRIHPVQERIAKGHGTQCGFCTPGMVMSIYTLLRNHPEPSTEQIMETLGGNLCRCTGYRPIVESAKSFCPSSTCCQMNGEGKCCLDEEKNEPERKNSVCTKLYEKKEFQPLDPTQELIFPPELMRMAEESQNTVLTFRGERTTWIAPGTLNDLLELKMKHPSAPLVIGNTYLGLHMKFTDVSYPIIISPARILELFVVTNTKQGLTLGAGLSLTQVKNVLSDVVSRLPKEKTQIYCALLKQLKTLAGQQIRNVASLGGHIISRLPTSDLNPILGIGNCILNVASTEGIQQIPLNDHFLAGVPDAILKPEQVLISVFVPRSSKWEFVSAFRQAPRQQNAFATVNAGMKVVFKEDTNTITDLGILYGGIGATVISADKSCRQLIGRCWDEEMLDDAGKMICEEVSLLMAAPGGMEEYRKTLAISFLFMFYLDVLKQLKTRDPHKYPDISQKLLHILEDFPLTMPYGMQSFQDVDFQQPLQDPIGRPIMHQSGIKHATGEAVFCDDMSVLPGELFLAVVTSSKSHAKIISLDASEALASLGVVDVVTARDVPGDNGREEESLYAQDEVICVGQIVCAVAADSYAHAQQAAKKVKIVYQDIEPMIVTVQDALQYESFIGPERKLEQGNVEEAFQCADQILEGEVHLGGQEHFYMETQSVRVVPKGEDKEMDIYVSSQDAAKTQEMVARTLGIPKNRINCHVKRVGGAFGGKESKPGLLASVAAVAAQKTGRPIRFILERRDDMLITGGRHPLLGKYKIGFMNNGKIKAADIQLYINGGCTPDLSESVIERALLKLENAYKIPNLRVRGRVCKTNLPSNTAFRGFGFPQGAFVTETCMSAVAAKCRLPPEKVRELNMYRTIDRTIHNQEFDPTNLLQCWEACVENSSYYNRKKAVDEFNQQRFWKKRGIAIIPMKFSVGFTKTFLYQAAALVQIYTDGSVLVAHGGVELGQGINTKMIQVASRELKIPMSYIHLDEMSTVTVPNTVTTGASTGADVNGRAVQNACQILMKRLEPIIKQNPSGTWEEWVKEAFVQSISLSATGYFRGYQADMDWEKGEGDIFPYFVFGAACSEVEIDCLTGAHKNIRTDIVMDGSFSINPAVDIGQIEGAFVQGLGLYTLEELKYSPEGVLYTRGPHQYKIASVTDIPEEFHVSLLTPTPNPKAIYSSKGLGEAGTFLGCSVFFAIAAAVAAAREERGLSPIWAINSPATAEVIRMACEDQFTNLVPQTDSKCCKPWSIPVA",–,–,–,2933 ± 380,0.233 ± 0.0167,83.3 ± 16.7,–,–,–
"mAOX3 (mouse aldehyde oxidase 3) (Mus musculus; A807E/D878L/F776K/K889H/L881S/P1015T/Y1019L/Y885R) (protein, N-terminal His6-tag, full length, plasmid pMMA1, expressed in E. coli; homodimer with Moco, two [2Fe-2S], FAD) MSPSKESDELIFFVNGKKVTERNADPEVNLLFYLRKVIRLTGTKYGCGGGDCGACTVMISRYDPISKRISHFSATACLVPICSLHGAAVTTVEGIGSTKTRIHPVQERIAKGHGTQCGFCTPGMVMSIYTLLRNHPEPSTEQIMETLGGNLCRCTGYRPIVESAKSFCPSSTCCQMNGEGKCCLDEEKNEPERKNSVCTKLYEKKEFQPLDPTQELIFPPELMRMAEESQNTVLTFRGERTTWIAPGTLNDLLELKMKHPSAPLVIGNTYLGLHMKFTDVSYPIIISPARILELFVVTNTKQGLTLGAGLSLTQVKNVLSDVVSRLPKEKTQIYCALLKQLKTLAGQQIRNVASLGGHIISRLPTSDLNPILGIGNCILNVASTEGIQQIPLNDHFLAGVPDAILKPEQVLISVFVPRSSKWEFVSAFRQAPRQQNAFATVNAGMKVVFKEDTNTITDLGILYGGIGATVISADKSCRQLIGRCWDEEMLDDAGKMICEEVSLLMAAPGGMEEYRKTLAISFLFMFYLDVLKQLKTRDPHKYPDISQKLLHILEDFPLTMPYGMQSFQDVDFQQPLQDPIGRPIMHQSGIKHATGEAVFCDDMSVLPGELFLAVVTSSKSHAKIISLDASEALASLGVVDVVTARDVPGDNGREEESLYAQDEVICVGQIVCAVAADSYAHAQQAAKKVKIVYQDIEPMIVTVQDALQYESFIGPERKLEQGNVEEAFQCADQILEGEVHLGGQEHFYMETQSVRVVPKGEDKEMDIYVSSQDAAKTQEMVARTLGIPKNRINCHVKRVGGAFGGKESKPGLLASVAAVAAQKTGRPIRFILERRDDMLITGGRHPLLGKYKIGFMNNGKIKAADIQLYINGGCTPDLSESVIERALLHLENAYKIPNLRVRGRVCKTNLPSNTAFRGFGFPQGAFVTETCMSAVAAKCRLPPEKVRELNMYRTIDRTIHNQEFDPTNLLQCWEACVENSSYYNRKKAVDEFNQQRFWKKRGIAIIPMKFSVGFTKTFLYQAAALVQIYTDGSVLVAHGGVELGQGINTKMIQVASRELKIPMSYIHLDEMSTVTVPNTVTTGASTGADVNGRAVQNACQILMKRLEPIIKQNPSGTWEEWVKEAFVQSISLSATGYFRGYQADMDWEKGEGDIFPYFVFGAACSEVEIDCLTGAHKNIRTDIVMDGSFSINPAVDIGQIEGAFVQGLGLYTLEELKYSPEGVLYTRGPHQYKIASVTDIPEEFHVSLLTPTPNPKAIYSSKGLGEAGTFLGCSVFFAIAAAVAAAREERGLSPIWAINSPATAEVIRMACEDQFTNLVPQTDSKCCKPWSIPVA",2122 ± 88,3.9 ± 0.25,1830 ± 133,133 ± 10,1.58 ± 0.1,12000 ± 1120,4085 ± 227,0.417 ± 0.0167,104 ± 8
"mAOX3 (mouse aldehyde oxidase 3) (Mus musculus; A807E/D878L/F776K/G1013S/K1016V/K889H/L881S/P1015T/S1011G/V1012I/Y1019L/Y1020N/Y885R) (protein, N-terminal His6-tag, full length, plasmid pMMA1, expressed in E. coli; homodimer with Moco, two [2Fe-2S], FAD) MSPSKESDELIFFVNGKKVTERNADPEVNLLFYLRKVIRLTGTKYGCGGGDCGACTVMISRYDPISKRISHFSATACLVPICSLHGAAVTTVEGIGSTKTRIHPVQERIAKGHGTQCGFCTPGMVMSIYTLLRNHPEPSTEQIMETLGGNLCRCTGYRPIVESAKSFCPSSTCCQMNGEGKCCLDEEKNEPERKNSVCTKLYEKKEFQPLDPTQELIFPPELMRMAEESQNTVLTFRGERTTWIAPGTLNDLLELKMKHPSAPLVIGNTYLGLHMKFTDVSYPIIISPARILELFVVTNTKQGLTLGAGLSLTQVKNVLSDVVSRLPKEKTQIYCALLKQLKTLAGQQIRNVASLGGHIISRLPTSDLNPILGIGNCILNVASTEGIQQIPLNDHFLAGVPDAILKPEQVLISVFVPRSSKWEFVSAFRQAPRQQNAFATVNAGMKVVFKEDTNTITDLGILYGGIGATVISADKSCRQLIGRCWDEEMLDDAGKMICEEVSLLMAAPGGMEEYRKTLAISFLFMFYLDVLKQLKTRDPHKYPDISQKLLHILEDFPLTMPYGMQSFQDVDFQQPLQDPIGRPIMHQSGIKHATGEAVFCDDMSVLPGELFLAVVTSSKSHAKIISLDASEALASLGVVDVVTARDVPGDNGREEESLYAQDEVICVGQIVCAVAADSYAHAQQAAKKVKIVYQDIEPMIVTVQDALQYESFIGPERKLEQGNVEEAFQCADQILEGEVHLGGQEHFYMETQSVRVVPKGEDKEMDIYVSSQDAAKTQEMVARTLGIPKNRINCHVKRVGGAFGGKESKPGLLASVAAVAAQKTGRPIRFILERRDDMLITGGRHPLLGKYKIGFMNNGKIKAADIQLYINGGCTPDLSESVIERALLHLENAYKIPNLRVRGRVCKTNLPSNTAFRGFGFPQGAFVTETCMSAVAAKCRLPPEKVRELNMYRTIDRTIHNQEFDPTNLLQCWEACVENSSYYNRKKAVDEFNQQRFWKKRGIAIIPMKFGISFTVTFLNQAAALVQIYTDGSVLVAHGGVELGQGINTKMIQVASRELKIPMSYIHLDEMSTVTVPNTVTTGASTGADVNGRAVQNACQILMKRLEPIIKQNPSGTWEEWVKEAFVQSISLSATGYFRGYQADMDWEKGEGDIFPYFVFGAACSEVEIDCLTGAHKNIRTDIVMDGSFSINPAVDIGQIEGAFVQGLGLYTLEELKYSPEGVLYTRGPHQYKIASVTDIPEEFHVSLLTPTPNPKAIYSSKGLGEAGTFLGCSVFFAIAAAVAAAREERGLSPIWAINSPATAEVIRMACEDQFTNLVPQTDSKCCKPWSIPVA",–,–,–,620 ± 16,0.65 ± 0.05,1050 ± 83.3,1736 ± 155,0.0833,47.8 ± 5.83
